These results are taken from publication PMC9234707, “Type II BMP and activin receptors BMPR2 and ACVR2A share a conserved mode of growth factor recognition” (The Journal of Biological Chemistry, 2022).

The data set concerns the molecule itself. The data set is described as follows: crystal structure; purified GF combined with 1.2 M excess of purified, deglycosylated receptor GBD; buffer exchanged to 10 mM Tris-HCl, 40 mM NaCl, pH 8.0; BMPR2-activin B crystals in 14% PEG 3K, 175 mM (NH4)2SO4, 100 mM BisTris pH 5.4; ACVR2A-activin A crystals in 17% PEG 3K, 100 NaCitrate pH 5.8.

B1: activin B (ligand, human (by the printed accession), UniProt P09529 293-407, looked up)
chain: GLECDGRTNLCCRQQFFIDFRLIGWNDWIIAPTGYYGNYCEGSCPAYLAGVPGSASSFHTAVVNQYRMRGLNPGTVNSCCIPTKLSTMSMLYFDDEYNIVKRDVPNMIVEECGCA
notes: activin B (inhibin beta B chain), full mature moiety, residues 293 to 407; disulfide linked dimer; also called ActB; INHBB
As to B1, the binding result was “binds”.

B2: activin A (ligand, human (by the printed accession), UniProt P08476 311-426, looked up)
chain: GLECDGKVNICCKKQFFVSFKDIGWNDWIIAPSGYHANYCEGECPSHIAGTSGSSLSFHSTVINHYRMRGHSPFANLKSCCVPTKLRPMSMLYYDDGQNIIKKDIQNMIVEECGCS
notes: activin A (inhibin beta A chain), full mature moiety, residues 311 to 426; disulfide linked dimer; it was removed with the prodomain; also called ActA; INHBA
With B2, the binding result was “binds”.
